# Read-outs that look alike come from different tables or passages of the source. Where a SMILES comes first, the peptide text is derived from it. Where no end group is shown, it is not given here.
# T1: porcine pancreatic lipase (Sus scrofa, UniProt P00591)
# T1 construct: purchased Sigma Co., Ltd
# T1 sequence (P00591 1-450): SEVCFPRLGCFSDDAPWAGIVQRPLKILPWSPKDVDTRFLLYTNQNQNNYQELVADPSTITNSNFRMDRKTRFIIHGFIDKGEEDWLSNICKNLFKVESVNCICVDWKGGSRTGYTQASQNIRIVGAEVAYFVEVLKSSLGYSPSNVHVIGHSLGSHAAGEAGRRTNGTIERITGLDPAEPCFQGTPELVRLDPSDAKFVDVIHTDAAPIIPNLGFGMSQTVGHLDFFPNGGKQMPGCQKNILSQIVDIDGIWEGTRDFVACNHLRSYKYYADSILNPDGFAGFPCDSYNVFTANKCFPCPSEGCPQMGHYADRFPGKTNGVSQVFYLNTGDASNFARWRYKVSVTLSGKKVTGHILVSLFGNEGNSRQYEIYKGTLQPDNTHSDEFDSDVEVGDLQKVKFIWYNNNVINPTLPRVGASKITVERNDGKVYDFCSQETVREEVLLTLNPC
# B1: Ovalbumin: ovalbumin (A5503, Sigma Co., Ltd.), non-basic comparison protein (protein, UniProt P01012 2-386, looked up)
# Ovalbumin: GSIGAASMEFCFDVFKELKVHHANENIFYCPIAIMSALAMVYLGAKDSTRTQINKVVRFDKLPGFGDSIEAQCGTSVNVHSSLRDILNQITKPNDVYSFSLASRLYAEERYPILPEYLQCVKELYRGGLEPINFQTAADQARELINSWVESQTNGIIRNVLQPSSVDSQTAMVLVNAIVFKGLWEKAFKDEDTQAMPFRVTEQESKPVQMMYQIGLFRVASMASEKMKILELPFASGTMSMLVLLPDEVSGLEQLESIINFEKLTEWTSSNVMEERKIKVYLPRMKMEEKYNLTSVLMAMGITDVFSSSANLSGISSAESLKISQAVHAAHAEINEAGREVVGSAEAGVDAASVSEEFRADHPFLFCIKHIATNAVLFFGRCVSP
# Tests used:
# [1] = target: T1, porcine pancreatic lipase; test: Assay of lipase inhibitory activity (olive oil emulsion with sodium cholate, Tris buffer pH 6.8); format: biochemical; conditions: for Activity of porcine pancreatic lipase: peptide solution 1 mg/ml in distilled water, control = 100
# Method: 250 mg of an olive oil, 21.5 mg of sodium cholate as a bile acid component and 30 mg of phosphatidylcholine were added to 5 ml of a 200 mM Tris buffer solution at pH 6.8 (called hereafter "Tris buffer").
# (§1) The mixture was ultrasonicated to prepare an olive oil emulsion.
# Porcine pancreatic lipase (manufactured by Sigma Co., Ltd.) was added to Tris buffer to prepare an enzyme solution containing 100 units porcine pancreatic lipase per ml.
# (§2) 100 μl of an olive oil emulsion as prepared above were used as a substrate.
# (§3) 50 μl of Tris buffer was added to the substrate to prepare an emulsion for control sample. Each 50 ml of the protein(polypeptide)-containing solutions as prepared above was added to 100 μl of the substrate to prepare six emulsions for test sample. All of the emulsions were incubated for 5 min. To each of those emulsions was added 50 μl of the lipase solution as prepared above. The resulting mixture was incubated at 37° C. for one hour, subsequently to which were added 3 ml of the same extraction solvent as used in Example 1. After being shaken for 5 min., the mixture was centrifuged at 3000 rpm for 5 min. The upper layer was removed with an aspirator and to the remaining solution was added 1 ml of the same copper reagent as used in Example 1. The mixture was shaken for 5 min. and centrifuged at 3000 rpm for 5 min. 0.5 ml of a solution was taken from the upper layer and to the solution was added 0.5 ml of the same color developing agent as used in Example 1.
# The resulting solutions for control and test samples were measured for the absorbance at 480 nm (A480) using a photometer to determine the amount of the free fatty acids as formed, i.e., the activity of the porcine pancreatic lipase. […]
# Lysine oligomers having a degree of polymerization of 2-5 as shown in Table 6 below were prepared using a peptide synthesizer (Biolynx 4170, LKB-Pharmacia Co., Ltd.). Each of the oligomers was purified by high performance liquid chromatography. Each of the purified oligomers was added to distilled water to make up to 1 μmol/ml. […] lysine oligomer-containing solutions were thus prepared.
# 50 μl of Tris buffer was added to the substrate to prepare an emulsion for control sample. Each 50 μof the lysine oligomer-containing solutions as prepared above was added to 100 μl of the substrate to prepare six emulsions for test sample. After incubating the emulsions for 5 min., there was added 50 μl of a lipase solution containing 100 units of porcine pancreatic lipase per ml as prepared in the same way as in Example 4. The resulting mixture was incubated at 37 ° C. for one hour.
# [2] = target: Porcine pancreatic lipase (porcine) (UniProt P00591)
# [3] = target: Cholesterol esterase isolated from porcine pancreas (porcine)
# [4] = target: Porcine pancreatic lipase (porcine) (UniProt P00591); remark: listed apart in the source
# [5] = target: Porcine pancreatic lipase (porcine) (UniProt P00591); remark: listed apart in the source
# [6] = target: Porcine pancreatic lipase (porcine) (UniProt P00591); remark: listed apart in the source
# [7] = target: T1, porcine pancreatic lipase; test: Assay of lipase inhibitory activity of proteins (olive oil emulsion with sodium cholate, potassium phosphate buffer pH 6.8); format: biochemical; conditions: for Activity of porcine pancreatic lipase (%): protein solution 4 mg/ml, % of control Abs480, sodium cholate present, 37° C., one hour; for Activity of porcine pancreatic lipase: % of control
# Method: 250 mg of an olive oil, 21.5 mg of sodium cholate as a bile acid component and 30 mg of phosphatidylcholine were added to 5 ml of a 300 mM potassium phosphate buffer solution at pH 6.8 (called hereafter "potassium phosphate buffer").
# as §1
# Porcine pancreatic lipase (manufactured by Sigma Co., Ltd.) was added to the potassium phosphate buffer solution to prepare a lipase solution containing 100 units porcine pancreatic lipase per ml.
# as §2
# 50 μl of potassium phosphate buffer was added to the substrate to prepare an emulsion for control sample. Each 50 μl of the protein(polypeptide)-containing solutions as prepared above was added to 100 μl of the substrate to prepare six emulsions for test samples. All of the emulsions were incubated for 5 min. To each of those emulsions was added 50 μl of the lipase solution as prepared above. The resulting mixture was incubated at 37° C. for one hour, subsequently to which were added 3 ml of an extraction solvent (chloroform:methanol:n-heptane=49:1:49). After being shaken for 5 min., the mixture was centrifuged at 3000 rpm for 5 min. The upper layer was removed with an aspirator and to the remaining solution was added 1 ml of a copper reagent (0.45M triethanol amine, 0.05N acetic acid, 3,4% copper sulfate pentahydrate and 20% sodium chloride). The mixture was shaken for 5 min. and centrifuged at 3000 rpm for 5 min. 0.5 ml of a solution was taken from the upper layer and to the solution was added 0.5 ml of a color developing agent (a solution of 0.1% bathocuproine and 0.05% butyl hydroxyanisole in the above extraction solvent).
# The resulting solutions for control and test samples were measured for the absorbance at 480 nm (A480) using a photometer to determine the amount of the free fatty acids as formed, i.e., the activity of the porcine pancreatic lipase.
# [8] = target: cholesterol esterase isolated from porcine pancreas (Sus scrofa, UniProt A0A286ZKB1); conditions: protein solution 4 mg/ml; % of control Abs480; sodium cholate present; 37° C., one hour
# Method: as §2
# as §3, with “potassium phosphate” for “Tris”, “Each 50 ml of the protein(polypeptide)-containing solutions as prepared above was added to 100 μl of the substrate to prepare six emulsions for test sample.” left out
# [9] = target: Porcine pancreatic lipase (porcine) (UniProt P00591); remark: listed apart in the source
# [10] = target: Porcine pancreatic lipase (porcine) (UniProt P00591); remark: listed apart in the source
# [11] = lysine oligomer solution 1 μmol/ml, % of control
# [12] = solution of 1 mg in 10 ml Tris buffer, % of control Abs480, sodium cholate present
# Chain of cholesterol esterase isolated from porcine pancreas (A0A286ZKB1 1-682): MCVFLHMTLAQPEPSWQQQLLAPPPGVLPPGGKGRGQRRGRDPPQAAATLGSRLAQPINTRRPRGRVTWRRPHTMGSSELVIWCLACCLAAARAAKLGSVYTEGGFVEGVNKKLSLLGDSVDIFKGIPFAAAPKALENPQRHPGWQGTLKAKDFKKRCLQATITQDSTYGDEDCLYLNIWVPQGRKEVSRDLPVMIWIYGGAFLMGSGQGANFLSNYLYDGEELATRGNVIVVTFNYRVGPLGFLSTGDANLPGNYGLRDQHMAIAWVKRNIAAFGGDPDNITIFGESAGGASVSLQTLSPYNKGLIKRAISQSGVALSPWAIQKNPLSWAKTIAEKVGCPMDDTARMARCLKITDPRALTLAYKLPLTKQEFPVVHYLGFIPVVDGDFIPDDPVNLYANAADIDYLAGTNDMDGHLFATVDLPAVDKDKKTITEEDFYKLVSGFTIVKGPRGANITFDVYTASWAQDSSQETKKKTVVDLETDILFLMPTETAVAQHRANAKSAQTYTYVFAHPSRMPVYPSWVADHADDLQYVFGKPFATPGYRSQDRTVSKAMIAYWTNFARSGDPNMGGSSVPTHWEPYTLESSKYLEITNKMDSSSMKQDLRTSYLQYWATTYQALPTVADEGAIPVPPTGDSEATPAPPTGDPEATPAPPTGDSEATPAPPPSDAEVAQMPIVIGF
molecule,measurement,setting,value
NCCCC[C@H](NC(=O)[C@@H](N)CCCCN)C(=O)O [α-(L-lysine)2],Activity of porcine pancreatic lipase (%),[1]; [11],103.6%
NCCCC[C@H](NC(=O)[C@H](CCCCN)NC(=O)[C@H](CCCCN)NC(=O)[C@@H](N)CCCCN)C(=O)O [α-(L-lysine)4] (H-KKKK-OH),Activity of porcine pancreatic lipase (%),[1]; [11],103.8%
NCCCC[C@H](N)C(=O)NCCCC[C@H](N)C(=O)NCCCC[C@H](N)C(=O)O [ε-(L-lysine)3],Activity of porcine pancreatic lipase (%),[1]; [11],89.0%
NCCCC[C@H](N)C(=O)NCCCC[C@H](N)C(=O)NCCCC[C@H](N)C(=O)NCCCC[C@H](N)C(=O)O [ε-(L-lysine)4],Activity of porcine pancreatic lipase (%),[1]; [11],53.8%
NCCCC[C@H](N)C(=O)NCCCC[C@H](N)C(=O)NCCCC[C@H](N)C(=O)NCCCC[C@H](N)C(=O)NCCCC[C@H](N)C(=O)O [ε-(L-lysine)5],Activity of porcine pancreatic lipase (%),[1]; [11],3.1%
"Bovine serum albumin (A7030, Sigma Co., Ltd., U.S.A.) (from UniProt P02769)",Activity of porcine pancreatic lipase (%),[2],105 % of control
same,Activity of cholesterol esterase (%),[3],120 % of control
"Histone H2A (H6881, Sigma Co., Ltd.)","Activity of porcine pancreatic lipase (%), Tris buffer",[4],3.7 % of control
"Histone H3 (H4380, Sigma Co., Ltd.)","Activity of porcine pancreatic lipase (%), Tris buffer",[4],2.3 % of control
KKKKK [α-(L-lysine)5],Activity of porcine pancreatic lipase (%),[1]; [11],2.1%
"Ovalbumin (A5503, Sigma Co., Ltd.) (from UniProt P01012)",Activity of porcine pancreatic lipase (%),[2],107 % of control
same,Activity of cholesterol esterase (%),[3],93.6 % of control
"Poly-L-arginine (P3892, Sigma Co., Ltd.) (peptide)","Activity of porcine pancreatic lipase (%), Tris buffer",[4],16.5 % of control
Protamine,Activity of porcine pancreatic lipase (%),[1]; [12],1.3%
"Protamine (P4005, Sigma Co., Ltd., U.S.A.)","Activity of porcine pancreatic lipase (%), Tris buffer",[4],1.3 % of control
poly-L-arginine,Activity of porcine pancreatic lipase (%),[1]; [12],16.5%
α2-purothionin (SEQ ID NO:2) (peptide),Activity of porcine pancreatic lipase (%),[2],0 % of control
α-(L-lysine)2 (peptide),Activity of porcine pancreatic lipase (%),[5],104 % of control
α-poly-D-lysine hydrobromide,Activity of porcine pancreatic lipase,[1],1.1
"α-poly-D-lysine hydrobromide (P7886, Sigma Co., Ltd.) (peptide)","Activity of porcine pancreatic lipase (Example 6, 1 mg/ml solution)",[6],1.1 % of control
"α-poly-L-lysine (3075, Peptide Research Co., Ltd.)","Activity of porcine pancreatic lipase (%), Tris buffer",[4],6.9 % of control
same,"Activity of porcine pancreatic lipase (Example 6, 1 mg/ml solution)",[6],1.6 % of control
α-poly-L-lysine hydrochloride,Activity of porcine pancreatic lipase,[1],1.6
same,Activity of porcine pancreatic lipase (%),[1]; [12],6.9%
"β-Lactoglobulin: β-lactoglobulin (L0130, Sigma Co., Ltd.), non-basic comparison protein [reference compound]",Activity of porcine pancreatic lipase (%),[7],103.9%
same,Activity of cholesterol esterase (%),[8],89.9%
β-Purothionin: purified β-purothionin (SEQ ID NO:3) isolated from the crude wheat purothionin mixture; misprinted α-Purothionin in Table 3 (KSCCKSTLGRNCYNLCRARGAQKLCANVCRCKLTSGLSCPKDFPK),Activity of porcine pancreatic lipase,"[7]; concentration of 0.04 mg/ml, separate experiment",5.2%
same,Activity of porcine pancreatic lipase (%),[7],0%
same,Activity of porcine pancreatic lipase,[7]; solution diluted to protein concentration of 0.2 mg/ml,0%
same,Activity of porcine pancreatic lipase (%),[1]; [12],1.3%
"β-lactoglobulin (L0130, Sigma Co., Ltd.) (from UniProt P02754)",Activity of porcine pancreatic lipase (%),[2],104 % of control
same,Activity of cholesterol esterase (%),[3],89.9 % of control
β-purothionin (SEQ ID NO:3) (peptide),Activity of porcine pancreatic lipase (%),[2],0 % of control
same,"Activity of porcine pancreatic lipase (%), Tris buffer",[4],1.3 % of control
same,"Activity of porcine pancreatic lipase, solution diluted to 0.2 mg/ml",[9],0%
same,"Activity of porcine pancreatic lipase, separate experiment at 0.04 mg/ml",[10],5.2%
ε-(L-lysine)3 (peptide),Activity of porcine pancreatic lipase (%),[5],89 % of control
ε-(L-lysine)4 (SEQ ID NO: 6) (peptide),Activity of porcine pancreatic lipase (%),[5],53.8 % of control
ε-(L-lysine)5 (SEQ ID NO: 7) (peptide),Activity of porcine pancreatic lipase (%),[5],3.1 % of control
B1,Activity of porcine pancreatic lipase (%),[7],107.0%
same,Activity of cholesterol esterase (%),[8],93.6%
KKKK [α-(L-lysine)4 (SEQ ID NO: 4)],Activity of porcine pancreatic lipase (%),[5],104 % of control
KKKKK [α-(L-lysine)5 (SEQ ID NO: 5)],Activity of porcine pancreatic lipase (%),[5],2.1 % of control

# Reference: patent publication US5376640A, “Lipolytic enzyme inhibitors” (Nisshin Flour Milling Co., Ltd., priority 1989, dated 1994)
